This passage reports Kd results from PMC3136212, “Identification of the DNA-Binding Domains of Human Replication Protein A That Recognize G-Quadruplex DNA”.

Data set [1] concerns the target T1, RPA (full-length heterotrimer RPA1/RPA2/RPA3) (human, UniProt P27694;P15927;P35244 1-616;1-270;1-121). Nature of the data set: FP; 500 mM NaCl; stoichiometric (equilibrium only at 1250 mM); FP: 0.060 uM FAM-oligo, 10-1500 mM NaCl, room temperature; CD: Buffer A 25 mM Tris pH 7.5, 2 mM MgCl2, 6% glycerol, 1 mM DTT, 100 (or 10) mM NaCl, room temperature. The following applies: protein: recombinant; copies: 1;1;1; label: 5' 6-FAM; intramolecular G4, antiparallel at 100 mM NaCl, mixed/parallel at 10 mM NaCl.

In data set [2] the target is T2, RPA-CDE-core (human, UniProt P27694;P15927;P35244 436-616;43-171;1-121). The data set can be described thus: FP; 500 mM NaCl; FP: 0.060 uM FAM-oligo, 10-1500 mM NaCl, room temperature; CD: Buffer A 25 mM Tris pH 7.5, 2 mM MgCl2, 6% glycerol, 1 mM DTT, 100 (or 10) mM NaCl, room temperature. The following applies: protein: recombinant; tags: N-terminal His, thrombin-cleaved; copies: 1;1;1; label: 5' 6-FAM; intramolecular G4, antiparallel at 100 mM NaCl, mixed/parallel at 10 mM NaCl.

Data set [3] deals with T3, RPA-AB (human, UniProt P27694 181-441). Described as above. The following applies: protein: recombinant; tags: N-terminal His6, thrombin-cleaved; label: 5' 6-FAM; intramolecular G4, antiparallel at 100 mM NaCl, mixed/parallel at 10 mM NaCl.
The target in data set [4] is T2, RPA-CDE-core. The data set can be described thus: FP; 10 mM NaCl; FP: 0.060 uM FAM-oligo, 10-1500 mM NaCl, room temperature; CD: Buffer A 25 mM Tris pH 7.5, 2 mM MgCl2, 6% glycerol, 1 mM DTT, 100 (or 10) mM NaCl, room temperature. Further details: unit not given here. The following applies: protein: recombinant; tags: N-terminal His, thrombin-cleaved; copies: 1;1;1; label: 5' 6-FAM; intramolecular G4, antiparallel at 100 mM NaCl, mixed/parallel at 10 mM NaCl.

In data set [5] the target is RPA-DE (human, UniProt P15927;P35244 43-171;1-121). The description is as above. Details: unit not given here. The following applies: protein: recombinant; tags: N-terminal His, thrombin-cleaved; copies: 1;1; label: 5' 6-FAM; intramolecular G4, antiparallel at 100 mM NaCl, mixed/parallel at 10 mM NaCl.
In data set [6] the target is RPA-C (human, UniProt P27694 432-595, V435T;W442Q;V465T;V469T;F523S;F567S;I571T). The data set is described as above. Details: unit not given here. The following applies: protein: recombinant; tags: N-terminal His, thrombin-cleaved; label: 5' 6-FAM; intramolecular G4, antiparallel at 100 mM NaCl, mixed/parallel at 10 mM NaCl.
In data set [7] the target is T1, RPA (full-length heterotrimer …). Nature of the data set: FP; 1500 mM NaCl; FP: 0.060 uM FAM-oligo, 10-1500 mM NaCl, room temperature; CD: Buffer A 25 mM Tris pH 7.5, 2 mM MgCl2, 6% glycerol, 1 mM DTT, 100 (or 10) mM NaCl, room temperature. Further details: unit not given here. The following applies: protein: recombinant; copies: 1;1;1; label: 5' 6-FAM; intramolecular G4, antiparallel at 100 mM NaCl, mixed/parallel at 10 mM NaCl.

Data set [8] shares this target. The data set can be described thus: FP; 1250 mM NaCl; FP: 0.060 uM FAM-oligo, 10-1500 mM NaCl, room temperature; CD: Buffer A 25 mM Tris pH 7.5, 2 mM MgCl2, 6% glycerol, 1 mM DTT, 100 (or 10) mM NaCl, room temperature. The following applies: protein: recombinant; copies: 1;1;1; label: 5' 6-FAM; intramolecular G4, antiparallel at 100 mM NaCl, mixed/parallel at 10 mM NaCl. Further details: unit not given here.

For data set [9], the target named is T2, RPA-CDE-core. Nature of the data set: FP; 100 mM NaCl; FP: 0.060 uM FAM-oligo, 10-1500 mM NaCl, room temperature; CD: Buffer A 25 mM Tris pH 7.5, 2 mM MgCl2, 6% glycerol, 1 mM DTT, 100 (or 10) mM NaCl, room temperature. Further details: unit not given here. The following applies: protein: recombinant; tags: N-terminal His, thrombin-cleaved; copies: 1;1;1; label: 5' 6-FAM; intramolecular G4, antiparallel at 100 mM NaCl, mixed/parallel at 10 mM NaCl.

Data set [10] deals with T3, RPA-AB. Described as above. Further details: unit not given here. The following applies: protein: recombinant; tags: N-terminal His6, thrombin-cleaved; label: 5' 6-FAM; intramolecular G4, antiparallel at 100 mM NaCl, mixed/parallel at 10 mM NaCl.

T2 sequence (P27694 436-616, chain 1 of 3): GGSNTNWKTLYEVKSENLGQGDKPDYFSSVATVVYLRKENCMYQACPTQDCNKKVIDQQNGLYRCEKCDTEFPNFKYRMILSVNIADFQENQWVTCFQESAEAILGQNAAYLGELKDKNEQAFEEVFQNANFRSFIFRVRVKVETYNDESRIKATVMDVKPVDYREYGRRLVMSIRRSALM
T2 sequence (P15927 43-171, chain 2 of 3): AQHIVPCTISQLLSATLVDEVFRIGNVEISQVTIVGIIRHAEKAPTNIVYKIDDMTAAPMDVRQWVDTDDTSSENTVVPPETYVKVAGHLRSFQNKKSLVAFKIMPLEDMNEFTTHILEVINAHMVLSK
T2 sequence (P35244 whole entry, chain 3 of 3): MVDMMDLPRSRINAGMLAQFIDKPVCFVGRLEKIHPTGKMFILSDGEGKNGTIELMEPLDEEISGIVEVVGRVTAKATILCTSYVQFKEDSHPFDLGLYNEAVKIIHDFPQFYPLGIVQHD
T1 sequence (P27694 whole entry, chain 1 of 3): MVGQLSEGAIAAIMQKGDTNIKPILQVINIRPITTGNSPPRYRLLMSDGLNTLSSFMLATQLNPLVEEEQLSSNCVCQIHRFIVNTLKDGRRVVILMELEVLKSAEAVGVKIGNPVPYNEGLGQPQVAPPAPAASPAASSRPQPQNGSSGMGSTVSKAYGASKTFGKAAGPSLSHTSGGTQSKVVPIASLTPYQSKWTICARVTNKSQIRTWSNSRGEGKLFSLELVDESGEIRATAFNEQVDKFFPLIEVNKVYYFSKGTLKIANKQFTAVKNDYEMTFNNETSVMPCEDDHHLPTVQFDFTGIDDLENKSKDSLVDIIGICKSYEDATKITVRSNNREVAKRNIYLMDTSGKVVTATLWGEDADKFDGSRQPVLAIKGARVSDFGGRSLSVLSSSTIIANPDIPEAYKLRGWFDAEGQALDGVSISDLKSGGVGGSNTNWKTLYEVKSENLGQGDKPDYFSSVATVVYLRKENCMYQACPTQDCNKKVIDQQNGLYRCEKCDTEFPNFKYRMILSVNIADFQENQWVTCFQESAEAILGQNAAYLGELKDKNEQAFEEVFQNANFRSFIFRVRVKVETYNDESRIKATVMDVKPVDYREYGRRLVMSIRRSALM
T1 sequence (P15927 whole entry, chain 2 of 3): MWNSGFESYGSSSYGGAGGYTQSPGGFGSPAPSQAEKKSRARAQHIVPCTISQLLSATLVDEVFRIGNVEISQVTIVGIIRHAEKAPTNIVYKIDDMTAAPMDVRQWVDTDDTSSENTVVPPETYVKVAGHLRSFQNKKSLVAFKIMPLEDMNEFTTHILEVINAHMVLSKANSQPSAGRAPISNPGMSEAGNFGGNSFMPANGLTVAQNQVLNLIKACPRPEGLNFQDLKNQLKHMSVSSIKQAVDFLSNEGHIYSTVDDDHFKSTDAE
T1 sequence (P35244 whole entry, chain 3 of 3): as the sequence (P35244 whole entry, chain 3 of 3) above
T3 sequence (P27694 181-441): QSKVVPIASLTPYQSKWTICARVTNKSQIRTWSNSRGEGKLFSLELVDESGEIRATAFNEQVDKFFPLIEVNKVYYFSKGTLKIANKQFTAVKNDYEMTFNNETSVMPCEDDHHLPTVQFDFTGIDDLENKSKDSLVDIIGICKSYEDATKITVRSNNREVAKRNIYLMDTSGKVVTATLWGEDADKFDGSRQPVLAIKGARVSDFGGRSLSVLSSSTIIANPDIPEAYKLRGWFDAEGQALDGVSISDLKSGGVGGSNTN
Sequence of RPA-C (P27694 432-595 V435T/W442Q/V465T/V469T/F523S/F567S/I571T): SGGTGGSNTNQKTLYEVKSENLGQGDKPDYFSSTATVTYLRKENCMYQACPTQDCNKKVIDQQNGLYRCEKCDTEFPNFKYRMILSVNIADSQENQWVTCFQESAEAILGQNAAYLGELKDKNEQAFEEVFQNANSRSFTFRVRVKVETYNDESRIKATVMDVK
Sequence of RPA-DE (P15927 43-171, chain 1 of 2): as the sequence (P15927 43-171, chain 2 of 3) above
Sequence of RPA-DE (P35244 whole entry, chain 2 of 2): as the sequence (P35244 whole entry, chain 3 of 3) above

Regarding TAGGGGAAGGGTTGGAGTGGGTT (structured_DNA, 18-carbon spacer (sp18) at 5' end) [Gq23 (FP)], the Kd in data set [1] is ~0.04 0.02; in data set [2], 11.9 µM; in data set [3], 3.28; in [4], 0.16; in data set [5], 6.68; in data set [6], 3.62. Also, the Kd in data set [7] stood at 0.85; in data set [8], 0.37; in data set [9], 0.55; in data set [10], 0.44.
